Measurements: patent US20070048315A1 (SCHERING, published 2007)
Changes are numbered by the printed parent chain. Values joined by “and” are separate entries in the source; they are usually repeats but may differ in a detail not shown here. Identical values can stand only once.

T1: "Non-linked" human IL-23 (human p40 coexpressed in 293T cells with human p19:FLAG-tag peptide) (human, UniProt P29460 23-328)
T1 sequence 1: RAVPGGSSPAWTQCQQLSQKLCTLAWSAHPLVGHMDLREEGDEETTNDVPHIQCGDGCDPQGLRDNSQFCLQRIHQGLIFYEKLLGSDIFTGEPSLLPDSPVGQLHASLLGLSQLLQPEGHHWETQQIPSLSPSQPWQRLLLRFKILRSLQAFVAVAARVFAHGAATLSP
T1 sequence 2: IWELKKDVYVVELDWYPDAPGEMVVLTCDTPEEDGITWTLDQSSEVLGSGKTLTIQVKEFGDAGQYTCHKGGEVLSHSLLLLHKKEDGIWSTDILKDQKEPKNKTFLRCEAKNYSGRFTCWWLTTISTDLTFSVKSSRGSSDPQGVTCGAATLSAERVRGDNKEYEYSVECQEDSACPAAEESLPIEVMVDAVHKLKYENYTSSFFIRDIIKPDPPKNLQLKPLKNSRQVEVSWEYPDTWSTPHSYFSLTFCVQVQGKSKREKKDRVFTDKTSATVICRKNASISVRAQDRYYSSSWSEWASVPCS

T2: non-tagged, non-linked native human IL-23p19/p40 coexpressed in SF9 cells (eBioscience CAT No. 34-8239) (human, UniProt P29460 23-328)
T2 sequence 1: T1 sequence 1
T2 sequence 2: T1 sequence 2

B1: mouse anti-human IL-23p19 antibody 7G10 (antibody, V domains shown)
VH: EVQLQQSGPELVKPGASVKMSCKASGYTFTSNVMHWVKQKPGQGLEWIGYINPYNDGTKYNEKFKGKATLTSDKSSSTAYMELSSLTSEDSAVYYCARNWDVAYWGQGTLVTVSA
VL: DIVMTQSPATLSVTPGDRVSLSCRASQSISDYLHWYRQKSHESPRLLIKYASQSISGIPSRFSGSGSGSDFTLSINSVEPEDVGVYYCQNGHSFPFTFGSGTKLEIKR
B2: mouse anti-human IL-23p19 antibody 13B5 (antibody, V domains shown)
VH: EVQLQQSGPELVKPGASVKMSCKASGYTFTRYLMHWVKQKPGQGLEWIGYINPYNDGTNYNEKFKGKATLTSDKSSSTAYMELSSLTSEDSAVYYCARNWDVGGYWGQGTTLTVSS
VL: B1 VL with R37Q
B3: mouse anti-human IL-23p19 antibody 33B12 (antibody, V domains shown)
VH: QVQLQQSGAELARPGASVKLSCKASGYTFTSYSLKWVKQRTGQGLEWIGEIHPRSGNTHYNEKFKGKATLTADKSSSTAYMDLRSLTSEDSAVYFCATNWDLGYWGQGTTITVSS
VL: B1 VL with M4L, Y36F, R37Q, K39R
B4: mouse anti-human IL-23p19 antibody 6H12 (antibody, V domains shown)
VH: B1 VH with Q3H, T30N, S31R, N32Y, V33L, M34I, Y54N, K59N, R98A, V102Q
VL: B1 VL with R37Q, A51T
B5: humanized anti-human IL-23p19 antibody hum7G10 (antibody, human IgG1, kappa, V domains shown)
VH: QVQLVQSGAEVKKPGASVKVSCKASGYTFTSNVMHWVRQAPGQGLEWMGYINPYNDGTKYNEKFKGRVTMTTDTSTSTAYMELRSLRSDDTAVYYCARNWDVAYWGQGTLVTVSS
VL: DIQMTQSPSSLSASVGDRVTITCRASQSISDYLHWYQQKPGKAPKLLIYYASQSISGVPSRFSGSGSGTDFTLTISSLQPEDFATYYCQNGHSFPFTFGQGTKVEIKR
B6: humanized anti-human IL-23p19 antibody hum6H12 (antibody, human IgG1, kappa, V domains shown)
VH: B5 VH with T30N, S31R, N32Y, V33L, M34I, Y54N, D56A, K59N, V102Q
VL: B5 VL with A51T
B7: mouse anti-human IL-23p19 antibody 3D7 (antibody, V domains shown)
VH: QVQLQQSGPELVKPGASVKISCKASGYSFTSYYIHWVKQRPGQGLEWIGWIFPGSGNTKYNEKFKGKATLTADTSSTTAYMQLSSLTSEASAVYFCAREGLHYFGLYAMDYWGHGTSVTVSS
VL: DIQMTQTTSSLSASLGDRVTISCSASQGISNYLNWFQQKPDGTVKLLIYYTSSLHSGVPSRFSGSGSGTDYSLTISNLEPEDIATYYCQQYSKLPYTFGGGTKLEIKR
B8: mouse anti-human IL-23p19 antibody 39G2 (antibody, V domains shown)
VH: QVQLQQPGAELVRPGASVKLSCKASGYSFTSSWMNWVKQRPGQGLEWIGMIHPSDSETRTNQKFKDKATLTVDKSSSTAYMQLSSPTSEDSAVYYCARGMITAPTVYWGQGTLVTVSA
VL: DIVLTQSPASLAVSLGQRATISCRASKSVSTSAYSYFHWYQQKPGQPPKLLIYLASNLESGVPARFSGSGSGTDFTLNIHPVEEEDAATYYCQHSRELPWTFGGGTKLEITP
B9: mouse anti-human IL-23p19 antibody 35F12 (antibody, V domains shown)
VH: B8 VH with V12M, K19R, S31T, T60L, K63N, K74R, S84N, T105S
VL: B8 VL with E85G, P112R

How the values were obtained:
Assay in all cases: cell-based or functional assay
[1] = target: "Elastikine" human IL-23 (single chain FLAG-tag peptide:GLU-tag peptide:human p40:elasti-linker:human p19, … (human, UniProt P29460 23-328))
[2] = target: T1, "Non-linked" human IL-23 (human p40 …)
[3] = target: T2, non-tagged, non-linked native human …
[4] = target: "Elastikine" human IL-23 (single chain FLAG-tag peptide:GLU-tag peptide:human p40:elasti-linker:human p19, … (human, UniProt P29460 23-328)); remark: listed apart in the source

Binder	IC50 for blocking of Ba/F3 cell proliferation [1]	IC50 for blocking of Ba/F3 cell proliferation [2]	IC50 for blocking of Ba/F3 cell proliferation [3]	IC50 for blocking of Ba/F3 cell proliferation [4]
B1	22 nM and 18 nM	3000 nM	–	–
B2	7 nM and 5 nM	113 nM	31 nM	–
B3	4 nM and 3 nM	193 nM	57 nM	–
B4	11 nM and 9 nM	1500 nM	1300 nM and 500 nM	–
B5	–	10000 nM	7800 nM	29 nM
B6	–	4000 nM	3200 nM	27 nM
B7	3 nM	37 nM	2 nM	–
B8	9 nM and 5 nM	67 nM	11 nM	–
B9	15 nM and 5 nM	73 nM	12 nM	–
